# From patent US20130045267A1, “METHODS OF USING AGENTS THAT MODULATE CLAUDIN EXPRESSION” (priority 2010, published 2013)
# B1: CLDN1 siRNA: claudin-1 specific siRNA (Santa Cruz), a pool of 3 separate strands, SEQ ID NO: 10-15 (nucleic acid)
# chain 1: UACAUAGGCAUAGUUCAUGNN
# chain 2: CAUGAACUAUGCCUAUGUANN
# chain 3: AACGUAUGCAGUUAAUUCCNN
# chain 4: GGAAUUAACUGCAUACGUUNN
# chain 5: UGAAGAUCUAUGUAUGUGGNN
# chain 6: CCACAUACAUAGAUCUUCANN
# modifications: chemistry not given here
# What was measured:
# [1] = tested on: primary human keratinocytes (PHK); assay: Click-iT EdU proliferation assay in PHK; format: cell-based; details: n=3
# [2] = tested on: primary human keratinocytes (PHK); assay: Trans Epithelial Electric Resistance (TEER) in PHK monolayers; format: cell-based
# Procedure: PHK were plated at a subconfluent density of 2.5−3×10^4 cells/filter in Transwell insert and cultured in Keratinocyte-SFM media until confluent. TEER was measured using an EVOMX voltohmmeter (World Precision Instruments, Sarasota, Fla.). The resistance of cell-free filters was subtracted from each experimental value.
# PHK were plated on glass coverslips at 2-3×10^5 cells/well in a 6-well plate or at 2-3×10^4 cells/filter in Transwell insert (Costar; PET membrane, 0.4 μm pore size, 6.5 mm insert) in Keratinocyte-SFM without antibiotics. The next day after plating, cells were transfected with claudin-1 specific or control (scrambled) siRNAs (Santa Cruz) using Lipofectamine™ 2000 transfection Reagent (Invitrogen). TEER and permeability experiments were conducted 48 hours after PHK were switched to differentiation media.
# TEER was measured in PHK as described above. PHK were stimulated with S. aureus-derived peptidoglycan (PGN, 0.2-20 μg/ml, n=3-7) (FIG. 19A), Malp-2 (10-1000 ng/ml, n=3) (FIG. 19B), and Pam3CSK4 a TLR1/2 ligand (0.01-20 μg/ml, n=3-6) (FIG. 19C). Data are presented by analyzing the area under the TEER curve and normalized to the mean values for the control group (media alone)*p<0.05; **p<0.01.
molecule,measurement,setting,value
B1,cell proliferation by Click-iT EdU assay,"[1]; CLDN1 siRNA, PHK",enhanced cell proliferation
same,proliferating cells,[1]; claudin-1 depleted PHK,21.6±1.4 EdU positive cells/hpf
same,reduction in TJ function (electrical resistance and permeability assays),"[2]; claudin-1 siRNA, PHK",~50%
same,TEER,"[2]; siRNA 100 nM, 48 hours after switch to differentiation media, n=4",80.6±6.4 ohms×cm^2
same,drop in TEER,"[2]; siRNA 100 nM, vs scrambled siRNA",> 50%
